Laboratory results from patent US9115359B2, “Methods for producing secondary metabolites” (NewSouth Innovations Pty Limited, priority 2007, dated 2015).

B1: NhcS: phosphopantetheinyl transferase (heterocyst carrier protein synthase) from Nodularia spumigena NSOR10 (protein)
chain: MTALNHLWLPVPTNLTLLPNDVHIWRIHLDVPEAQQQNLLATLSGDELTRANRFHFQEHRQRFIAGRGILRSILGSYLGIEPQRVLFDYQERGKPILADSLAKSGLWFNLSHSQGLALCAVNYHNRIGIDLEYIRRMSDVEALAKRFFLPREYDVVRSLSDHQQQEIFFRYWTCKEAYLKATGEGLAQLEQVEVLLNPTEPAQLQTSESWSLFELRAAEDYFAAVVVEGSGCNLQCWQY

Tests used:
E. coli AcpS = details: reported (21,40); with respect to CoA; cited from earlier work
HetM ArCP = test: NhcS PPT assay, ESI-MS; assay type: biochemical, N. punctiforme ATCC29133; details: 30 minutes, 37° C.
Experimental: (§1) PPT assays were carried out as previously described in Finking, R., et al., (2002) Characterization of a new type of phosphopantetheinyl transferase for fatty acid and siderophore synthesis in Pseudomonas aeruginosa. J Biol Chem 277:50293-302). In brief, a 100-400 μL reaction comprising of 50 mM Tris-HCl pH 7.4, 12.5 mM MgCl, 0.5 mM CoA, 2 μM DTT, 30 μg of the respective carrier proteins (CPs) and 300 nM of PPT was incubated at 37° C. for 30 minutes. Reactions were terminated by the addition of 1 ml of 10% TCA. Assays were precipitated overnight at −20° C. before at centrifugation 4° C., for 15 mins at 16,000 g. Protein pellets were analysed by electrospray ionisation mass spectrometry (ESI-MS). Spectra were acquired using an API QStar Pulsar i hybrid tandem mass spectrometer (Applied Biosystems, Foster City Calif.). Samples (˜200-400 fmol) were dissolved in water:acetonitrile:formic acid (50:49:1), loaded (1 μl) into nanospray needles (Proxeon, Denmark) and the tip positioned ˜10 mm from the orifice. Nitrogen was used as curtain gas and a potential of 900 V applied to the needle. A T of MS scan was acquired (m/z 550-2000, 1 second) and accumulated for ˜1 minute into a single file. […]
(§2) Activity was detected by ionisation mass spectrometry through the mass addition of […], relating to the incorporation of the pantetheinyl arm of CoA transferred by the PPT to the CP (FIG. 17).

Mpcp = test: NhcS PPT assay, ESI-MS; assay type: biochemical, Microcystis aeruginosa; details: 30 min assay
Experimental: as §1, §2

[1] = system: Synechocystis sp. PCC6803; test: Complementation of Sppt gene disruption with NsPPT; assay type: cell-based; details: PCR screening of segregation
Source text: A 2.5 kb fragment including Sppt (slr0495, Swissprot accession number Q55185) was amplified with the primers sirup (5′-[…]-3′) (SEQ ID NO: 7) and slrdn (5′-[…]-3′) (SEQ ID NO: 8). This fragment was cloned into pGEM-T-Easy (Promega) and digested with the restriction enzyme AvaI. A chloramphenicol (Chl^R) resistance cassette was ligated into this site and the resulting plasmid, pGCSlr, was naturally transformed into Synechocystis sp. PCC6803 to insertionally inactivate Sppt using methods described in Eaton-Rye, J., 2004 The construction of gene knockouts in the cyanobacterium Synechocystis sp. PCC 6803, Methods Mol. Biol.; 274:309-24. The Synechocystis sp. PCC6803 wildtype (WT) was also transformed with a chloramphenicol resistance knockout plasmid as a positive control for strain viability. Briefly, approximately 2 ml Synechocystis sp. PCC6803 cells were centrifuged and washed in BG-11 media. After resuspension in […] BG-11, 3 μg ml^−1 plasmid was added and the cells were incubated at 25° C. in 30 μmol m^−2 sec^−1 constant light for 6 hours. The cells were spread onto sterile nitrocellulose filters (0.45 μm, Millipore, Billerica Mass.) on non-selective BGTS plates (BG-11, 10 mM TES, 0.3% sodium thiosulfate, 1% agar). After 36 hours, the filters were transferred to selective BGTS plates with 10 μg ml^−1 chloramphenicol. […]

Nppcp = test: NhcS PPT assay, ESI-MS; assay type: biochemical, Nostoc punctiforme; details: 30 minutes, 37° C.
Experimental: as §1, §2

Molecule	kcat value (E. coli AcpS)	conversion of apo-ArCP to holo-ArCP (HetM ArCP)	pantetheinylation of Mpcp (Mpcp)	Sppt gene disruption in NsPPT-complemented strain [1]	pantetheinylation of Nppcp (Nppcp)
CC(C)(COP(=O)(O)OP(=O)(O)OC[C@H]1O[C@@H](n2cnc3c(N)ncnc32)[C@H](O)[C@@H]1OP(=O)(O)O)[C@@H](O)C(=O)NCCC(=O)NCCS [CoA, co-enzyme A]	approximately 10 min^d	–	–	–	–
B1	–	conversion of the apo-ArCP (15.75 kDa) to the holo-ArCP (16.05 kDa) is seen	Complete pantetheinylation	Sppt was effectively disrupted in the NsPPT-complemented strain	Nppcp was pantetheinylated
